According to paper PMC4218952:

Molecular target: Myc-GluK2a (UniProt Q13002)
Test: co-IP; HEK293T cells transfected with FLAG-parkin and Myc-GluK2a or its truncation mutants; 500 ug lysate, Myc, parkin or FLAG antibody overnight at 4 C, Protein A or G agarose, washes with 500 mM NaCl, 1% Triton X-100; also after activation with 10 mM glutamate

Sequence of FLAG-parkin (O60260 whole entry, the tested form may be a part): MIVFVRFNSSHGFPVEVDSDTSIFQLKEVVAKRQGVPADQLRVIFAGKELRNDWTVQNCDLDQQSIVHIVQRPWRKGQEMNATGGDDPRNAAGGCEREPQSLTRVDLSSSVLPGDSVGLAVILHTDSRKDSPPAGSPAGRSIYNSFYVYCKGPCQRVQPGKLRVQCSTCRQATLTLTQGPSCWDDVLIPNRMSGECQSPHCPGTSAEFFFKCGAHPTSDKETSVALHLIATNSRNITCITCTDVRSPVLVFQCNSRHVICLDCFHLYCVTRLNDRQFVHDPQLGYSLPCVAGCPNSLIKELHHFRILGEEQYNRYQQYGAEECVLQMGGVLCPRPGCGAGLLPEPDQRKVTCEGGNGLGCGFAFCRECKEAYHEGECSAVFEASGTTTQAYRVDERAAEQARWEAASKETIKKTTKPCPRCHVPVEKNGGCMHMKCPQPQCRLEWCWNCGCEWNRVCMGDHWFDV
Sequence of UniProt Q13002 (Q13002 32-908): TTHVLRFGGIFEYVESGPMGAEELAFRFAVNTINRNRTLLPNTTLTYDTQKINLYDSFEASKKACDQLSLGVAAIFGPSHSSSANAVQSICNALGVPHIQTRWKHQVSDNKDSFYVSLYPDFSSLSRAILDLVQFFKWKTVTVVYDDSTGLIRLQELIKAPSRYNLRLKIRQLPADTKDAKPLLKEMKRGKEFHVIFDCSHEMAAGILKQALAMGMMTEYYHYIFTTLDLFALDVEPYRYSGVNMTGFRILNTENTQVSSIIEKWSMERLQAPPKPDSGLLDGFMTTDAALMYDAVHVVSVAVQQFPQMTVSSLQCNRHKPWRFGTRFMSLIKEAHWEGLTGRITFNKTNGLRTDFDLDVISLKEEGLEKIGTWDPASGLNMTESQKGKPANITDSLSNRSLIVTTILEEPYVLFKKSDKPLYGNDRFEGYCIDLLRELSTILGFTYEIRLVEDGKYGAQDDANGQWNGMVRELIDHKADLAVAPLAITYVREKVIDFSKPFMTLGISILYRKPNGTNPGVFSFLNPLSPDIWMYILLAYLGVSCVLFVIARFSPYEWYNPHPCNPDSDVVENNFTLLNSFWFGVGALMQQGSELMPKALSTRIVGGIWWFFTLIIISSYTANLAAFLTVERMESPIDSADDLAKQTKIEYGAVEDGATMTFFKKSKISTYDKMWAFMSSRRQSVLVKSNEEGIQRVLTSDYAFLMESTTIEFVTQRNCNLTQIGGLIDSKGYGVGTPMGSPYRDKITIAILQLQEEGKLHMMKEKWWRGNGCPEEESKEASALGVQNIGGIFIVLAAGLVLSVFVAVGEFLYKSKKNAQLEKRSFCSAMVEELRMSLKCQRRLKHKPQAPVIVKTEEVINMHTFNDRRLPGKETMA

Work on “FLAG-parkin (from UniProt O60260 1-465) (enzyme)” yielded a co-immunoprecipitation after 10 mM glutamate, relative to untreated (fold of untreated) of 2.7.
